B1: Receptor-like protein kinase 5 (Arabidopsis thaliana (Mouse-ear cress)), P47735 (parent)
chain: MLYCLILLLCLSSTYLPSLSLNQDATILRQAKLGLSDPAQSLSSWSDNNDVTPCKWLGVSCDATSNVVSVDLSSFMLVGPFPSILCHLPSLHSLSLYNNSINGSLSADDFDTCHNLISLDLSENLLVGSIPKSLPFNLPNLKFLEISGNNLSDTIPSSFGEFRKLESLNLAGNFLSGTIPASLGNVTTLKELKLAYNLFSPSQIPSQLGNLTELQVLWLAGCNLVGPIPPSLSRLTSLVNLDLTFNQLTGSIPSWITQLKTVEQIELFNNSFSGELPESMGNMTTLKRFDASMNKLTGKIPDNLNLLNLESLNLFENMLEGPLPESITRSKTLSELKLFNNRLTGVLPSQLGANSPLQYVDLSYNRFSGEIPANVCGEGKLEYLILIDNSFSGEISNNLGKCKSLTRVRLSNNKLSGQIPHGFWGLPRLSLLELSDNSFTGSIPKTIIGAKNLSNLRISKNRFSGSIPNEIGSLNGIIEISGAENDFSGEIPESLVKLKQLSRLDLSKNQLSGEIPRELRGWKNLNELNLANNHLSGEIPKEVGILPVLNYLDLSSNQFSGEIPLELQNLKLNVLNLSYNHLSGKIPPLYANKIYAHDFIGNPGLCVDLDGLCRKITRSKNIGYVWILLTIFLLAGLVFVVGIVMFIAKCRKLRALKSSTLAASKWRSFHKLHFSEHEIADCLDEKNVIGFGSSGKVYKVELRGGEVVAVKKLNKSVKGGDDEYSSDSLNRDVFAAEVETLGTIRHKSIVRLWCCCSSGDCKLLVYEYMPNGSLADVLHGDRKGGVVLGWPERLRIALDAAEGLSYLHHDCVPPIVHRDVKSSNILLDSDYGAKVADFGIAKVGQMSGSKTPEAMSGIAGSCGYIAPEYVYTLRVNEKSDIYSFGVVLLELVTGKQPTDSELGDKDMAKWVCTALDKCGLEPVIDPKLDLKFKEEISKVIHIGLLCTSPLPLNRPSMRKVVIMLQEVSGAVPCSSPNTSKRSKTGGKLSPYYTEDLNSV
partner: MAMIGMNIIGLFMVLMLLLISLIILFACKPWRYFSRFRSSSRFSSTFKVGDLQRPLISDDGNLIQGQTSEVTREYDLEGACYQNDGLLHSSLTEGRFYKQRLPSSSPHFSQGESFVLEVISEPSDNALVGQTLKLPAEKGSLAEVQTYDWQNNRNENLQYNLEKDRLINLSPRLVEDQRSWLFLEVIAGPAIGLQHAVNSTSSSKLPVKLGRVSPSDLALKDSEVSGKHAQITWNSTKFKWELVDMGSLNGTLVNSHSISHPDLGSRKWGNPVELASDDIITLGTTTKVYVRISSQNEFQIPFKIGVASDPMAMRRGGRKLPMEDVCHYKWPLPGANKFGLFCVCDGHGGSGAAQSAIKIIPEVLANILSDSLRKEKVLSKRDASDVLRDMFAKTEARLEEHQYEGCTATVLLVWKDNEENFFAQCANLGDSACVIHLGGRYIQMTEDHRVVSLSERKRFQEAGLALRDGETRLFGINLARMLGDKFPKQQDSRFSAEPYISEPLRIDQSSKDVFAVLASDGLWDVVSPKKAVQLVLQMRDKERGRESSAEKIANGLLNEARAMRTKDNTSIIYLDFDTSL

Variants of: B1
Settings: with KAPP

effect of a mutation on the interaction | Variant
disrupting interaction | K711E

Source: IntAct's records for PubMed 7973632
